Assay results taken from US20250121104A1 (FUSION PHARMACEUTICALS, published 2025).

Columns and labels:
[1] = molecular target: T1, EGFR and cMET co-expressed on the surface of tumour cell lines (HCC827, HT29, H441, H1975) (UniProt P00533 25-1210; P08581 25-1390); assay: saturation radioligand binding on H1975 cells, 4 C, specific binding (4 µM cold antibody for non-specific), single-site fit
T1 construct: whole, on cells; Target of the bispecific molecules on cells that carry both receptors; the cell line of each value stands under assay; also called EGFR and c-MET expressing cell line; EGFR and/or cMET expressing cell lines
Experimental: (§1) The purpose of this assay was to ensure that the radioimmunoconjugates maintained the binding characteristics of the native antibody in EGFR and/or cMET expressing cell lines including HT29, H441, HT29, HCC827, and H1975. One day prior to the experiment, cells (1.5-2×10⁵) were seeded in 48-well microplates in 500 μL supplemented medium. At the start of the assay, cells were washed with PBS once and then treated with increasing concentrations of Compound E (0.05 nM to 100 nM) in the absence and presence of 4 μM cold antibody [total binding (TB) and non-specific binding (NSB) respectively]. Plates were incubated at 4° C. for about 3 hours with mild shaking. Following incubation, the cells were washed twice with PBS and were then lysed with 1% Triton-X-100. The lysates were transferred to gamma counting tubes and run along with Compound E standards on the Wizard 1470 gamma counter to determine the amount of radioactivity in counts per minute (CPM) for each lysate. The remaining lysate from each well (25 μL) was used for analyzing the protein content using a standard protein quantification assay.

[2] = molecular target: T1, EGFR and cMET co-expressed on the …; assay: saturation radioligand binding on HCC827 cells, 4 C, specific binding (4 µM cold antibody for non-specific), single-site fit
Experimental: as §1

[3] = molecular target: T1, EGFR and cMET co-expressed on the …; assay: saturation radioligand binding on H441 cells, 4 C, specific binding (4 µM cold antibody for non-specific), single-site fit
Experimental: as §1

[4] = molecular target: T1, EGFR and cMET co-expressed on the …; assay: saturation radioligand binding on HT29 cells, 4 C, specific binding (4 µM cold antibody for non-specific), single-site fit
Experimental: as §1

[5] = molecular target: T2, cynomolgus monkey cMET (recombinant, soluble monomeric) (cynomolgus monkey, UniProt A0M8R7 25-932 (Papio anubis entry)); assay: SPR (BIAcore T200), antibody captured on anti-human IgG, soluble antigen as analyte
T2 construct: also called cyno cMET

[6] = molecular target: T3, human cMET (recombinant, soluble monomeric) (human, UniProt P08581 25-932); assay: as above
T3 construct: also called cMET antigen; His-tagged cMET antigen

mouse cMET (recombinant) = mouse cMET (recombinant) (mouse, UniProt P16056 25-929, limits assumed); assay: as above
Ron (CD136) = molecular target: T4, Ron (CD136) (UniProt Q04912 25-957, limits assumed); assay: ELISA, antigen coated at 1 µg/mL, antibody titrated from 10 µg/mL
T4 sequence (looked up): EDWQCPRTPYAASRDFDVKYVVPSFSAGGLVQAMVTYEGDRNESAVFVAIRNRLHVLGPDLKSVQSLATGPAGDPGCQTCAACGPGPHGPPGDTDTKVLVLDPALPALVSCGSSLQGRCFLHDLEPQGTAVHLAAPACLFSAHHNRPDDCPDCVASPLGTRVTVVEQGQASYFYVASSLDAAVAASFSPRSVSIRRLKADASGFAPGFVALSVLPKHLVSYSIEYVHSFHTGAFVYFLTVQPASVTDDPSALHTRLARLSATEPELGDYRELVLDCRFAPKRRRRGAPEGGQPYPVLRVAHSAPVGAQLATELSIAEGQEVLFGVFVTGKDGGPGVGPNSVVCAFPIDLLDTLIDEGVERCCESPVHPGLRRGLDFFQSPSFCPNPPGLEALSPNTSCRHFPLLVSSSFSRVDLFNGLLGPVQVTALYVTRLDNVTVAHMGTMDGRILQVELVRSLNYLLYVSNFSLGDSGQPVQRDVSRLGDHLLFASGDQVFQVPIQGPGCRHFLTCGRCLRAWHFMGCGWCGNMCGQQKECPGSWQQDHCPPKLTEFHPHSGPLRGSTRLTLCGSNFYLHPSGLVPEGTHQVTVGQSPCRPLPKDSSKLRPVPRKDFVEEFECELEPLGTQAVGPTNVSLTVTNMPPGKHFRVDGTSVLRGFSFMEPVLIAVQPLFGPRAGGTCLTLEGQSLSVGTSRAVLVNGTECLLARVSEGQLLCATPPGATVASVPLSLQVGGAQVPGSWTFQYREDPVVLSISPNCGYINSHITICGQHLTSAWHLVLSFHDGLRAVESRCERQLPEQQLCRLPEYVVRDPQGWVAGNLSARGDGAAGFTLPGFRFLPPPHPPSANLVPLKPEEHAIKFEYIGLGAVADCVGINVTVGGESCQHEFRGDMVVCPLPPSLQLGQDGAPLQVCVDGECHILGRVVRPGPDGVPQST
Experimental: (§2) Specificity for EGFR and cMET species paralogs and closely related family members was determined by ELISA. Briefly, antigen solutions were prepared in PBS at 1 μg/mL and 50 microliters was coated onto half area ELISA assay plates. Plates were washed and blocked with 1% BSA in PBS containing 0.005% Tween-20 (PBS-T) for one hour at room temperature. […] Wells were incubated with 50 microliters of the indicated primary antibodies diluted in PBS-T in a 1:3 dilution series, starting at 10 μg/mL and ending at 0.002 μg/mL, except for the HER4 binding mAb control, MAB1131, for which the series started at 1 μg/mL. The wells were washed 4 times in PBS-T, then 50 μl of goat anti-human Fab HRP-labeled secondary antibody, diluted 1:5000 in PBS-T, was added to each well and incubated for one hour at room temperature. […] 50 microliters of TMB stop solution was added to all wells and the absorbance was read at 450 nm on a SpectraMax M5 microplate reader. Data were analyzed in the SoftMax Pro 5 software and plotted using GraphPad Prism 7 graphing software.
(§3) To determine the species cross reactivity, ELISA assays were carried out as described above.

Semaphorin 3a = molecular target: T5, Semaphorin 3a (UniProt Q14563 21-771, limits assumed); assay: as above
T5 sequence (looked up): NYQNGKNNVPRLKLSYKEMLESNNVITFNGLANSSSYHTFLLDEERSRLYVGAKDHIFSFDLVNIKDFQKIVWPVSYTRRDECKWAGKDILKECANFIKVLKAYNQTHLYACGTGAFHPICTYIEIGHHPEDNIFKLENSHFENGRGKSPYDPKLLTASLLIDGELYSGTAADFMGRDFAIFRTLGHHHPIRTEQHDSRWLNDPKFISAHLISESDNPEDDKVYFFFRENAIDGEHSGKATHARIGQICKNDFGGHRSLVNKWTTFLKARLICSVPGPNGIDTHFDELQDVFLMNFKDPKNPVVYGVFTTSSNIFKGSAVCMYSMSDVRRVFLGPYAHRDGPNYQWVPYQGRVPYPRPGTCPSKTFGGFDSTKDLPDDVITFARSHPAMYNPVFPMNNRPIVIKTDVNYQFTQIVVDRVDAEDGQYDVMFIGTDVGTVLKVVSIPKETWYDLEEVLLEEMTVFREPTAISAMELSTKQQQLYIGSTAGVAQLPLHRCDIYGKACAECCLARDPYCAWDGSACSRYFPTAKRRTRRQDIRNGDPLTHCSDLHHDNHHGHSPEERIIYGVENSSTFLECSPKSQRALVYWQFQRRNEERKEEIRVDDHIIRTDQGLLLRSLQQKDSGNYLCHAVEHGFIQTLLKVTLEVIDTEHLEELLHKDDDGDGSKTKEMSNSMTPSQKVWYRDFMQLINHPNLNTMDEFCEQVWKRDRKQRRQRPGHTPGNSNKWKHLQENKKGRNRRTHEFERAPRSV
Experimental: as §2, §3

[7] = molecular target: T6, cynomolgus monkey EGFR (recombinant, soluble monomeric) (cynomolgus monkey, UniProt P55245 25-645 (rhesus entry)); assay: SPR (BIAcore T200), antibody captured on anti-human IgG, soluble antigen as analyte
T6 construct: also called cyno EGFR

mouse EGFR (recombinant) = molecular target: T7, mouse EGFR (recombinant) (mouse, UniProt Q01279 25-647); assay: as above
T7 construct: also called murine EGFR

[8] = molecular target: T8, human EGFR (recombinant, soluble monomeric) (human, UniProt P00533 25-645); assay: as above
T8 construct: also called EGFR antigen

Chain of mouse cMET (recombinant) (P16056 25-929 limits assumed): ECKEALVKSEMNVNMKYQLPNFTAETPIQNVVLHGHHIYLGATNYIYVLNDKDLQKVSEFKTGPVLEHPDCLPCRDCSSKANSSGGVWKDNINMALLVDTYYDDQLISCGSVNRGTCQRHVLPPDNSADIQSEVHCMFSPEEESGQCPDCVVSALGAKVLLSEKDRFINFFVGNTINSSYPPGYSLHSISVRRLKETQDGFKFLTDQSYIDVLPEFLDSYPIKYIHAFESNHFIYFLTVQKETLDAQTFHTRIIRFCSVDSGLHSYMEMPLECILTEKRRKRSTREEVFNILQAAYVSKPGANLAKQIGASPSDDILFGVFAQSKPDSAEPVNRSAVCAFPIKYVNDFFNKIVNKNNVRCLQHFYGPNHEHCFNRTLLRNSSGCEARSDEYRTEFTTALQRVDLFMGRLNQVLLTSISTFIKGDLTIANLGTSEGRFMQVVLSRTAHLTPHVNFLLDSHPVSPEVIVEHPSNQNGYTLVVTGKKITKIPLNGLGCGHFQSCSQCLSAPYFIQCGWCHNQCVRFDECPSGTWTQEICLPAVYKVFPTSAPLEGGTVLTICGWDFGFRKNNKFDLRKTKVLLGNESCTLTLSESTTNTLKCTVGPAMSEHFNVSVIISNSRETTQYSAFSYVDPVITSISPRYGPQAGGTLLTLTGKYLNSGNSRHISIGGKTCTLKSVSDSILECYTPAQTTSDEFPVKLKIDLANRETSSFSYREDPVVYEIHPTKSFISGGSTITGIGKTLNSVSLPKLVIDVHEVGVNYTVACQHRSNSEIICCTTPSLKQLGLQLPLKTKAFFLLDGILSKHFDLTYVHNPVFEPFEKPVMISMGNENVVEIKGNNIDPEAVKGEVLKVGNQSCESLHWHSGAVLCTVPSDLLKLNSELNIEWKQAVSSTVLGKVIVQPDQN
T2 sequence (A0M8R7 25-932 S170N/I621T): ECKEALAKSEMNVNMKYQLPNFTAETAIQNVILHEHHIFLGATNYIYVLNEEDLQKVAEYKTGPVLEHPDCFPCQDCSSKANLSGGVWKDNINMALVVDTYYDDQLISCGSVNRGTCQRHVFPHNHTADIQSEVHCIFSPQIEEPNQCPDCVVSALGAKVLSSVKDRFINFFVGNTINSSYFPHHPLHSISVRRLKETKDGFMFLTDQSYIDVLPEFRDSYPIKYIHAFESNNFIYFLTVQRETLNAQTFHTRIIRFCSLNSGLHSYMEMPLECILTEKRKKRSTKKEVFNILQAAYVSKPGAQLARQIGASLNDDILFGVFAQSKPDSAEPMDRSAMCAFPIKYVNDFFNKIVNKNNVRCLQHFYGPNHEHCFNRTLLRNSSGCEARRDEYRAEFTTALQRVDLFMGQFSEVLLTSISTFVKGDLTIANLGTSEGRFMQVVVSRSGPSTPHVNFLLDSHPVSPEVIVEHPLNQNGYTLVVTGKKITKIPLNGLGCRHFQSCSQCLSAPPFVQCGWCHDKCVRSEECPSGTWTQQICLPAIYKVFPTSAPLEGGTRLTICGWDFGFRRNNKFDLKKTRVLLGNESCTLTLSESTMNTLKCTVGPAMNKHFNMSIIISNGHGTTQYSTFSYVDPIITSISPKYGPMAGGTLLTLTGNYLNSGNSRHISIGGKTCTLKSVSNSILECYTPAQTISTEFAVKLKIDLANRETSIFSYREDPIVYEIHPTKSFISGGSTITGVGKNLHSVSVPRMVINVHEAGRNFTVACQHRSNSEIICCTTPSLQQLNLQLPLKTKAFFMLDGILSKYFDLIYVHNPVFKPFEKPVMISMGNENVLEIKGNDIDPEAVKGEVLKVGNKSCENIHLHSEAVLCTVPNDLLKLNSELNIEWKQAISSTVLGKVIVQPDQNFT
T3 sequence (P08581 25-932): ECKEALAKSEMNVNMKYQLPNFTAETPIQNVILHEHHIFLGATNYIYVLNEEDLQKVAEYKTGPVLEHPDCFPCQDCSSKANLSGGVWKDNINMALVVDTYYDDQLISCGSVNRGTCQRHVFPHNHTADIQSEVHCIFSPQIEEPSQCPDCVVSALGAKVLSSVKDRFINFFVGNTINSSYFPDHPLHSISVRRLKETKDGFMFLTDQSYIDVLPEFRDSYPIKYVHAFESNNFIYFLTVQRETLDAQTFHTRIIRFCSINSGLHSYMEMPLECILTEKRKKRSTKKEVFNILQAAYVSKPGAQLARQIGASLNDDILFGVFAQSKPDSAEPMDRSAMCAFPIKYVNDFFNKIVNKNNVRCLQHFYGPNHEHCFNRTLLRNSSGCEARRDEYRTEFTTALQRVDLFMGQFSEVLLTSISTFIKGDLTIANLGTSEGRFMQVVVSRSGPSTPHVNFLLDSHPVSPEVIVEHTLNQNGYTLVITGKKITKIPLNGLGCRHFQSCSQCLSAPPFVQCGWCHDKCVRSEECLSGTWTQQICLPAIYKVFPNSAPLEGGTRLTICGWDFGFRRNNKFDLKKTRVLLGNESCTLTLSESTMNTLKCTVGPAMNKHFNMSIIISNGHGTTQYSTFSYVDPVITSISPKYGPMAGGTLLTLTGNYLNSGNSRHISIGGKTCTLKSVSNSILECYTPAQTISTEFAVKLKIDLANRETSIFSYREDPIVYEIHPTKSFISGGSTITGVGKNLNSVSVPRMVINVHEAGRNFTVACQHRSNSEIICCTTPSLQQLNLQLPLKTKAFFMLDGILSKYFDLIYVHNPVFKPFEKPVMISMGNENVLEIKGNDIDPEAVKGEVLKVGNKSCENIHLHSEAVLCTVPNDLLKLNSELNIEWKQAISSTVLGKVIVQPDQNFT

B1: Compound E, [177Lu]-Compound C-anti-EGFR-cMET conjugate (bispecific antibody, V domains shown)
VH 1: QVQLVQSGAEVKKPGSSVKVSCKASGGTFSDNDFSWVRQAPGQGLEWMGAIVAVFRTETYAQKFQDRVKITADISTRTTYMELSSLRSEDTAVYYCARRLMSAISGPGAPLLMWGQGTLVTVSS
VL 1: QSALTQPRSVSGSPGQSVTISCTGTSSDVGGYNYVSWYQQHPGKAPKLMIYDVSKRPSGVPDRFSGSKSGNTASLTISGLQAEDEADYYCSSYTSSDTLEIFGGGTKLTVL
VH 2: QVQLVQSGAEVKKPGASVKVSCKASGYTFTDYYIHWVRQATGQGLEWMGWMNPNSGNTGYAQKFQGRVTMTRDTSISTAYMELSSLRSEDTAVYYCARGQGYTHSWGQGTMVTVSS
VL 2: DIQMTQSPSTLSASVGDRVTITCRASEGIYHWLAWYQQKPGKAPKLLIYKASSLASGVPSRFSGSGSGTEFTLTISSLQPDDFATYYCQQYSNYPPTFGGGTKLEIK
modifications: 177Lu-DOTA chelate-linker (Compound C) on lysine side chains, sites not stated; 177Lu-DOTA chelate-linker (Compound C) on lysine side chains, sites not stated; chelate-to-antibody ratio 5.3 for the whole antibody
notes: also called [177Lu]-DOTA-anti-EGFR-cMET
Kd [1]: ~6 nM
Kd [2]: ~9.9 nM
Kd [3]: ~15.5 nM
Kd [4]: ~5.7 nM

B2: RAA22 IgG (antibody, V domains shown)
VH: B1 VH 1
VL: B1 VL 1
notes: also called anti-EGFR antibody clone RAA22
binding result [5]: no binding (tested: 200 nM)
binding result [6]: no binding (tested: 200 nM)
binding result (mouse cMET (recombinant)): no binding (tested: 200 nM)
binding result (Ron (CD136)): no binding (tested: 10 µg/mL)
binding result (Semaphorin 3a): no binding (tested: 10 µg/mL)

B3: B09-57 IgG (antibody, V domains shown)
VH: B1 VH 2
VL: B1 VL 2
notes: also called B09-GL; anti-cMET antibody
binding result [7]: no binding (tested: 200 nM)
binding result (mouse EGFR (recombinant)): no binding (tested: 200 nM)
binding result [8]: no binding (tested: 200 nM)
binding result (mouse cMET (recombinant)): no binding (tested: 200 nM)
binding result (Ron (CD136)): no binding (tested: 10 µg/mL)
binding result (Semaphorin 3a): no binding (tested: 10 µg/mL)
